Data taken from article doi:10.1101/830018 (bioRxiv, 2019).

T1: mouse interleukin 11 receptor alpha chain 1 (mouse, UniProt Q64385 24-372)
T1 sequence (looked up): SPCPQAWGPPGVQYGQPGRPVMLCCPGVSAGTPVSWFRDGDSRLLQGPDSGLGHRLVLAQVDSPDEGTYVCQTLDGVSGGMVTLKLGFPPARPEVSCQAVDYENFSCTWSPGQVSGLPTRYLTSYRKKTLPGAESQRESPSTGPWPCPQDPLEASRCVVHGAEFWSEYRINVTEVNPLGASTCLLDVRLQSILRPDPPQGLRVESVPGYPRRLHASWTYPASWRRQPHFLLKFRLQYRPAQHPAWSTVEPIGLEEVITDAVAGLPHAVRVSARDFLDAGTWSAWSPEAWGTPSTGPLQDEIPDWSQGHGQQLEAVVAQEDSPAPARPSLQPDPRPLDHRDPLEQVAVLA

B1: recombinant human interleukin 11 (ligand, UniProt P20809 22-199, looked up)
chain: PGPPPGPPRVSPDPRAELDSTVLLTRSLLADTRQLAAQLRDKFPADGDHNLDSLPTLAMSAGALGALQLPGVLTRLRADLLSYLRHVQWLRRAGGSSLKTLEPELGTLQARLDRLLRRLQLLMSRLALPQPPPDPPAPPLAPPSSAWGGIRAAHAILGGLHLTLDWAVRGLLLLKTRL
B2: recombinant mouse IL11 (ligand, UniProt P47873 22-199, looked up)
chain: PGPPAGSPRVSSDPRADLDSAVLLTRSLLADTRQLAAQMRDKFPADGDHSLDSLPTLAMSAGTLGSLQLPGVLTRLRVDLMSYLRHVQWLRRAGGPSLKTLEPELGALQARLERLLRRLQLLMSRLALPQAAPDQPVIPLGPPASAWGSIRAAHAILGGLHLTLDWAVRGLLLLKTRL

Molecular target: T1, mouse interleukin 11 receptor alpha …
Assay: SPR

Binder	Kd
B1	72 nM
B2	94 nM
